From patent US20250381225A1 (DEVELOPMENT CENTER FOR BIOTECHNOLOGY, published 2025) come the findings set out here.

For test [1], the target named is T1, recombinant PD-1 protein (UniProt Q15116 25-167, limits assumed).
T1 construct: It may or may not be the same reagent as PD1-hFc
Kind of test: ELISA, recombinant PD-1 coated at 0.1 ug/well, serially diluted antibody. How it is done:
Antibodies of the invention were evaluated for specific binding to PD-1 using an enzyme-linked immunosorbent assay (ELISA). Briefly, recombinant PD-1 protein was immobilized on a 96-well ELISA plate at 0.1 μg/well. The chimeric anti-human PD-1 2B6 antibody was serially diluted and incubated with the coated PD-1, followed by detection with a horseradish peroxidase (HRP)-conjugated goat anti-mouse IgG secondary antibody. The binding was visualized using 3,3′,5,5′-tetramethylbenzidine (TMB) as a substrate, and the optical density (OD) was measured at 405 nm to assess the binding activity.

Test [2] deals with human PD-1 on PD-1 Effector Cells (Jurkat T cells) (human, UniProt Q15116 25-288). The test is described as follows: cell-based or functional assay.
In test [3] the target is T2, PD1-hFc (UniProt Q15116 25-167).
T2 construct: ELISA coat at 1 ug/ml; not shown: hFc (human Fc)
Kind of test: ELISA on coated PD1-hFc, anti-human kappa HRP, one site-specific binding fit. How it is done:
ELISA plates were coated with PD1-hFc (1 ug/ml) and blocked with blocking buffer (5% milk dissolved in PBS). The antibodies from 66.67 nM to […] dilute (4× fold dilution) were then added to the plates. The binding affinity of tested antibody to PD1-hFc was determined via adding goat anti-human KAPPA HRP IgG (1:3,000 dilution), and binding curve and KD were determined by software using one site-specific binding for nonlinear fit methods.
A general note: ELISA stands for enzyme-linked immunosorbent assay.

In test [4] the target is T2, PD1-hFc. The test is described as follows: ELISA on coated PD1-hFc; scFv-Fc expressed in FreeStyle 293 cells.
The target of test [5] is T2, PD1-hFc. Kind of test: ELISA on PD-1; protein purified from supernatant of 293T cells transfected with the CAR plasmid. How it is done:
To evaluate the expression of the present CAR construct, the plasmid encoding the CAR molecule was transfected into 293T cells. The protein was harvested from the supernatant of the cultured cells, followed by purifying and quantifying via measuring OD260/280. On the other hand, the binding affinity of the purified protein towards PD-1 was determined by ELISA.

T2 sequence (Q15116 25-167): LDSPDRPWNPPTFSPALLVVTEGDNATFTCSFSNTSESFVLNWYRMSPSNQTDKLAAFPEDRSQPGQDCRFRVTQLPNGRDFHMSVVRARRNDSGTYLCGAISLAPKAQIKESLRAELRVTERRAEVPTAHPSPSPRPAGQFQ
Sequence of human PD-1 on PD-1 Effector Cells (Jurkat T cells) (Q15116 25-288): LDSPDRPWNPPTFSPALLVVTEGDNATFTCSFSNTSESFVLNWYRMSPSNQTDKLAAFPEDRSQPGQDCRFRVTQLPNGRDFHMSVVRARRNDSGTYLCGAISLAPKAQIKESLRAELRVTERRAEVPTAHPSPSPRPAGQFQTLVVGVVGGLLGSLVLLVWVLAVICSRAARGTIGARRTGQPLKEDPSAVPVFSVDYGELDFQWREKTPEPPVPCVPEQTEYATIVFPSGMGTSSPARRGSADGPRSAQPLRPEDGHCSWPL
T1 sequence (Q15116 25-167 limits assumed): as the sequence (Q15116 25-167) above

B1: chimeric anti-human PD-1 2B6 antibody (antibody, V domains shown)
VH: EVKLVESGGGLVKPGGSLKLSCAAAGFTFSSYTMSWVRQTPAKRLEWVATISGGGANIYYPDSVKGRFTISRDNARNTLYLQMSSLRSEDTAMYYCVSPYYAIDFWGQGTSVTVSS
VL: DTVMTQSDKFMSTSVGDRVSITCKASQDVGSAVAWYQQKPGQSPKLLIYWASTRHTGVPDRFTGSGSGTDFTLTISNVQSEDLADYFCQQYSTYTWTFGGGTKLEIK
notes: also called mAb 2B6; M-M
For orientation: Kd means the equilibrium constant for the complex coming apart. For the molecule B1, the Kd in test [1] turned out to be 0.809 nM; in test [3], 0.495 nM. Further, in test [2], the “NFAT-RE-mediated luminescence (PD-1/PD-L1 Blockade Bioassay), EC50” value is 3.88 nM.

B2: humanized antibody 2B6 HdB1 Hd (antibody, V domains shown)
VH: EVQLVESGGGLVQPGGSLRLSCKASGFTFSSYTMSWVRQAPGKGLEWVATISGGGANIYYPDSVKGRFTISRDNSKNTLYLQMNSLRAEDTAVYYCVSPYYAIDFWGQGTLVTVSS
VL: DIQMTQSPSSLSASVGDRVTITCKASQDVGSAVAWYQQKPGKAPKLLIYWASTRHTGVPSRFSGSGSGTDFTLTISSLQPEDFATYYCQQYSTYTWTFGQGTKVEIK
notes: Heavy chain HdB1 with light chain Hd
In turn, B2 yielded a Kd in test [3] of 0.368 nM.

B3: humanized antibody 2B6 HuB1 Hd (antibody, V domains shown)
VH: EVQLVESGGGLVQPGGSLRLSCAASGFTFSSYTMSWVRQAPGKGLEWVATISGGGANIYYPDSVKGRFTISRDNSKNTLYLQMNSLRAEDTAVYYCVSPYYAIDFWGQGTLVTVSS
VL: DIQMTQSPSSLSASVGDRVTITCKASQDVGSAVAWYQQKPGKAPKLLIYWASTRHTGVPSRFSGSGSGTDFTLTISSLQPEDFATYYCQQYSTYTWTFGQGTKVEIK
notes: Heavy chain HuB1 with light chain Hd
In the case of B3, the Kd in test [3] is 0.403 nM.

B4: humanized 2B6 4D5 (2B6-HdHd) (antibody, V domains shown)
VH: EVQLVESGGGLVQPGGSLRLSCKASGFTFSSYTMSWVRQAPGKGLEWVATISGGGANIYYPDSVKGRFTISRDDSKNTLYLQMNSLRAEDTAVYYCARPYYAIDFWGQGTLVTVSS
VL: DIQMTQSPSSLSASVGDRVTITCKASQDVGSAVAWYQQKPGKAPKLLIYWASTRHTGVPSRFSGSGSGTDFTLTISSLQPEDFATYYCQQYSTYTWTFGQGTKVEIK
notes: Heavy chain Hd with light chain Hd
In test [3], B4 had a Kd of 179 nM.

B5: recombinant humanized 2B6 HuB1-scFv-Fc (Fc fusion)
scFv: EVQLVESGGGLVQPGGSLRLSCAASGFTFSSYTMSWVRQAPGKGLEWVATISGGGANIYYPDSVKGRFTISRDNSKNTLYLQMNSLRAEDTAVYYCVSPYYAIDFWGQGTLVTVSSGGGGSGGGGSGGGGSDIQMTQSPSSLSASVGDRVTITCKASQDVGSAVAWYQQKPGKAPKLLIYWASTRHTGVPSRFSGSGSGTDFTLTISSLQPEDFATYYCQQYSTYTWTFGQGTKVEIK
notes: Both carry the same printed name and are kept as one molecule; also called 286 HuB1-scFv-Fc; PD-1^2B6 scFv-Fc; not shown: lim
As to B5, the Kd in test [4] amounted to 2.58 nM; in test [5], 1.75 nM.
